Target: nesprin-2-Giant, Q6ZWQ0-1
Experiment: Duolink PLA (proximity ligation assay) in cells
Conditions: chain shown with the change; Bax/Bak DKO MEFs, transient transfection, in the presence of Q-VD-OPH; anti-Bax (6A7) Ab and anti-nesprin-2G Ab; n = 3; parent: est. 5.1; read off a plot; scale: fold of normalized Duolink dots per transfected cell relative to GFP

- response: 8.8
B1: GFP-Bax, Q07812 63-65A (protein)
chain: MDGSGEQPRGGGPTSSEQIMKTGALLLQGFIQDRAGRMGGEAPELALDPVPQDASTKKLSECAAAIGDELDSNMELQRMIAAVDTDSPREVFFRVAADMFSDGNFNWGRVVALFYFASKLVLKALCTKVPELIRTIMGWTLDFLRERLLGWIQDQGGWDGLLSYFGTPTWQTVTIFVAGVLTASLTIWKKMG

— paper PMC7501853
